According to paper PMC5761895:

Target: Fluorescently labelled replication protein A (Flu-RPA) (human) (UniProt P27694)
Sequence (P27694 whole entry, chain 1 of 3): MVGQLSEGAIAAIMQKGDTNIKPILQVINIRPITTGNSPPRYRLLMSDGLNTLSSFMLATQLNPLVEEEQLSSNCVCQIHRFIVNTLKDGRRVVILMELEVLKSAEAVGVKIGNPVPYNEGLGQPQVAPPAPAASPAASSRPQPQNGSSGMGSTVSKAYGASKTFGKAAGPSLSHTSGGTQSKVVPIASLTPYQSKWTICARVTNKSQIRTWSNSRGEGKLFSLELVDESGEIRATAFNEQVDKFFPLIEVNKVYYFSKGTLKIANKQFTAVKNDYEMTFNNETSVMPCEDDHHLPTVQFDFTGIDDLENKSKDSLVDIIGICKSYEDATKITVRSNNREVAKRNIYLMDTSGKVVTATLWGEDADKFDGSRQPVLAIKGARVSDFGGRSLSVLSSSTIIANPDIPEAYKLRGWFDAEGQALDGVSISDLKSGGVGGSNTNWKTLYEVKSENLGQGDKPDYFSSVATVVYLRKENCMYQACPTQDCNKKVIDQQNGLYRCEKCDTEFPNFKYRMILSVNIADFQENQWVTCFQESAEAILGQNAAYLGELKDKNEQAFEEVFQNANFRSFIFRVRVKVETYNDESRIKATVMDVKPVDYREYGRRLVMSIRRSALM
Sequence (P15927 whole entry, chain 2 of 3, further chain): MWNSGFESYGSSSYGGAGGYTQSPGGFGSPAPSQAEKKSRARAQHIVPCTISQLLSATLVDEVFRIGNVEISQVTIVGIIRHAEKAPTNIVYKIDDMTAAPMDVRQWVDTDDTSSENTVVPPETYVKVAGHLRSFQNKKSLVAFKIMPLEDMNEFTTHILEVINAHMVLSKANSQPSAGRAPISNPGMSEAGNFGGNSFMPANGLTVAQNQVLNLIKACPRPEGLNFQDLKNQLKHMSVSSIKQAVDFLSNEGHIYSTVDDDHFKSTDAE
Sequence (P35244 whole entry, chain 3 of 3, further chain): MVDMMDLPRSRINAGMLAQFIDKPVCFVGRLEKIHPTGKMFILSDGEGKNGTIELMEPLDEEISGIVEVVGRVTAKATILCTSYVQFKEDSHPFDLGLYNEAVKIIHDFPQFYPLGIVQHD

Chain of Recombinant human xeroderma pigmentosum group A protein (hXPA) bearing the N-terminal polyhistidine fragment (P23025 whole entry, the tested form may be a part): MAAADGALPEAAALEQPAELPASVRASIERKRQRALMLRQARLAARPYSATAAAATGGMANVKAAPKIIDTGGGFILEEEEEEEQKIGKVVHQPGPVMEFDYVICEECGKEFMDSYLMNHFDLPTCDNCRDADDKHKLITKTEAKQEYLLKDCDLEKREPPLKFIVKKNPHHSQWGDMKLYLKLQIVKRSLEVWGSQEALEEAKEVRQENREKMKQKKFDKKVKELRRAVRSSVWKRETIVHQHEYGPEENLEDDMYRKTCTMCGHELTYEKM

Substance: Recombinant human xeroderma pigmentosum group A protein (hXPA) bearing the N-terminal polyhistidine fragment (from UniProt P23025 1-273) (natural protein)
- EC50: 0.018 µM
